Experimental data published in paper PMC7390762.

Biological target: N-utilization substance (Nus) G, Escherichia coli (E. coli) (UniProt P0AFG0)
Assay: cryo-EM structure

UniProt P0AFG0, sequence (P0AFG0 whole entry): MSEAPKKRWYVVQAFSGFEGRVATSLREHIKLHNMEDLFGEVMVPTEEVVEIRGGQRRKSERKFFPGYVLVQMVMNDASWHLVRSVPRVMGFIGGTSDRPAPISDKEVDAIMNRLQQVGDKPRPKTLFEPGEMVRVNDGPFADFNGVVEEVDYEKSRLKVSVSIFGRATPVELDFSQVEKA

- percent of particles with extra density at S10: 5%
- stoichiometry N: 1
Substance: 70S ribosome (E. coli), intact (from UniProt P0A7R5 5-102) (complex)
